# B1: LC1 (ssDNA)
# DNA: TGCGTGTGTAGTGTGTCTGTTCTCCTTTTTTTGGTTGCTGCTCTTAGGGATTTGGGCGG
# Molecular target: CD19 extracellular domain (Homo sapiens, UniProt P15391 20-291)
# Test: flow cytometry on protein-coated beads; PBS, 37 C; PBS, 37 C, 30 min, three PBS washes; bead flow cytometry, random ssDNA pool as background; pH not stated
# Conditions: protein: commercial; label: FITC (flow cytometry); Cy3 (confocal); FITC at 5' end in selection primer
# Chain of CD19 extracellular domain (P15391 20-291): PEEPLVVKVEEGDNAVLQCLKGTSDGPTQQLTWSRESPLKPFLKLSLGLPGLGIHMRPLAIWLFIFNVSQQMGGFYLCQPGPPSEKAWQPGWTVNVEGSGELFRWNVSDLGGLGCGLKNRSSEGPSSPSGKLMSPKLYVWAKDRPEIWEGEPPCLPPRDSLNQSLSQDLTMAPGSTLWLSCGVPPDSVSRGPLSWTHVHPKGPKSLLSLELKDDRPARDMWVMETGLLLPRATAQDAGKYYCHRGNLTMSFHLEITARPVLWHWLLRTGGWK
binder,measurement,value
B1,Kd,85.4 nM
